Assay results as given in patent US20120149104A1.
pKd: −log10 of the molar value.

Legend:
[1] = target: SNAP-25 peptide comprising amino acids 134-206 of SEQ ID NO: 5 (human); test: SPR (BIAcore 3000), peptide on CM5 chip, antibody in flow
[2] = target: SNAP-25 peptide comprising amino acids 134-197 of SEQ ID NO: 5 (human); test: as above

For “MC-6050 mouse α-SNAP-25 monoclonal antibody (Research & Diagnostic Antibodies)”, the pKd [1] was 4.70, the koff [1] was 0.00607 s⁻¹ and the kon [1] was 306 M⁻¹ s⁻¹. For the same substance, the pKd [2] was 9.30, the koff [2] was 0.000882 s⁻¹ and the kon [2] was 1.78e+06 M⁻¹ s⁻¹.

“MC-6053 mouse α-SNAP-25 monoclonal antibody (Research & Diagnostic Antibodies)” showed a pKd [1] of 6.62, a koff [1] of 2.56e-05 s⁻¹ and a pKd [2] of 9.29. The koff [2] was 0.00118 s⁻¹ and the kon [2] was 2.32e+06 M⁻¹ s⁻¹.
